From US20190256846A1 (AGENCY FOR SCIENCE TECHNOLOGY AND RESEARCH, published 2019)

B1: GST fusion protein carrying the three PDZ domains of Tjp1 (GST-Tjp1 PDZ1-3) (other, human, UniProt Q07157 1-503, looked up)
chain: MSARAAAAKSTAMEETAIWEQHTVTLHRAPGFGFGIAISGGRDNPHFQSGETSIVISDVLKGGPAEGQLQENDRVAMVNGVSMDNVEHAFAVQQLRKSGKNAKITIRRKKKVQIPVSRPDPEPVSDNEEDSYDEEIHDPRSGRSGVVNRRSEKIWPRDRSASRERSLSPRSDRRSVASSQPAKPTKVTLVKSRKNEEYGLRLASHIFVKEISQDSLAARDGNIQEGDVVLKINGTVTENMSLTDAKTLIERSKGKLKMVVQRDERATLLNVPDLSDSIHSANASERDDISEIQSLASDHSGRSHDRPPRRSRSRSPDQRSEPSDHSRHSPQQPSNGSLRSRDEERISKPGAVSTPVKHADDHTPKTVEEVTVERNEKQTPSLPEPKPVYAQVGQPDVDLPVSPSDGVLPNSTHEDGILRPSMKLVKFRKGDSVGLRLAGGNDVGIFVAGVLEDSPAAKEGLEEGDQILRVNNVDFTNIIREEAVLFLLDLPKGEEVTILAQKK
notes: domain: PDZ 1-3 domains; also called GST ZO-1PDZ1-3 domain fusion protein; ZO-1 (Tjp1) PDZ domains; not shown: glutathione S-transferase (GST) tag encoded by the pGEX 4T-1 vector

Tests used:
[1] = biological target: ErbB4 on MCF-7 cells (endogenous) (UniProt Q15303); test: cell-based or functional assay
[2] = biological target: T1, ErbB4 mutant lacking the C-terminal PDZ binding motif (ErbB4 APBM) (UniProt Q15303 26-1308, limits assumed); test: GST pull-down from lysates of overexpressing cells, Western blot with anti-ErbB4
T1 construct: The mutation is a triple alanine substitution of the last three residues, not a deletion; Present in HEK293 cell lysate; also called mutant with a disrupted PBM
Protocol: ErbB4 and mutant was transfected into HEK293 cells using JetPrimePolyPlus transfection kit (PolyPlus Transfections) according to manufacturer's instructions. […] GST and GST ZO-1PDZ1-3 domain fusion proteins were generated, purified, and bound to Glutathione Sepharose-4B (GE Healthcare Life Sciences) using standard protocols. Bound proteins were quantified by SDS-PAGE by using known amounts of BSA as standards. 18 μl of GST beads were incubated with 1 μg of GST fusion proteins. Unbound proteins were removed by washing with ice cold PBS. 300 μg of the transfected cells were then added and incubated at 4° C. for 2 hr followed by washing 4 times with ice cold lysis buffer. The bound fractions were eluted with 4×SDS-PAGE sample buffer, separated by SDS PAGE, immunoblotted onto PVDF membranes and probed with Rabbit anti-ErbB4 antibodies.

Sequence of ErbB4 on MCF-7 cells (endogenous) (Q15303 26-1308 limits assumed): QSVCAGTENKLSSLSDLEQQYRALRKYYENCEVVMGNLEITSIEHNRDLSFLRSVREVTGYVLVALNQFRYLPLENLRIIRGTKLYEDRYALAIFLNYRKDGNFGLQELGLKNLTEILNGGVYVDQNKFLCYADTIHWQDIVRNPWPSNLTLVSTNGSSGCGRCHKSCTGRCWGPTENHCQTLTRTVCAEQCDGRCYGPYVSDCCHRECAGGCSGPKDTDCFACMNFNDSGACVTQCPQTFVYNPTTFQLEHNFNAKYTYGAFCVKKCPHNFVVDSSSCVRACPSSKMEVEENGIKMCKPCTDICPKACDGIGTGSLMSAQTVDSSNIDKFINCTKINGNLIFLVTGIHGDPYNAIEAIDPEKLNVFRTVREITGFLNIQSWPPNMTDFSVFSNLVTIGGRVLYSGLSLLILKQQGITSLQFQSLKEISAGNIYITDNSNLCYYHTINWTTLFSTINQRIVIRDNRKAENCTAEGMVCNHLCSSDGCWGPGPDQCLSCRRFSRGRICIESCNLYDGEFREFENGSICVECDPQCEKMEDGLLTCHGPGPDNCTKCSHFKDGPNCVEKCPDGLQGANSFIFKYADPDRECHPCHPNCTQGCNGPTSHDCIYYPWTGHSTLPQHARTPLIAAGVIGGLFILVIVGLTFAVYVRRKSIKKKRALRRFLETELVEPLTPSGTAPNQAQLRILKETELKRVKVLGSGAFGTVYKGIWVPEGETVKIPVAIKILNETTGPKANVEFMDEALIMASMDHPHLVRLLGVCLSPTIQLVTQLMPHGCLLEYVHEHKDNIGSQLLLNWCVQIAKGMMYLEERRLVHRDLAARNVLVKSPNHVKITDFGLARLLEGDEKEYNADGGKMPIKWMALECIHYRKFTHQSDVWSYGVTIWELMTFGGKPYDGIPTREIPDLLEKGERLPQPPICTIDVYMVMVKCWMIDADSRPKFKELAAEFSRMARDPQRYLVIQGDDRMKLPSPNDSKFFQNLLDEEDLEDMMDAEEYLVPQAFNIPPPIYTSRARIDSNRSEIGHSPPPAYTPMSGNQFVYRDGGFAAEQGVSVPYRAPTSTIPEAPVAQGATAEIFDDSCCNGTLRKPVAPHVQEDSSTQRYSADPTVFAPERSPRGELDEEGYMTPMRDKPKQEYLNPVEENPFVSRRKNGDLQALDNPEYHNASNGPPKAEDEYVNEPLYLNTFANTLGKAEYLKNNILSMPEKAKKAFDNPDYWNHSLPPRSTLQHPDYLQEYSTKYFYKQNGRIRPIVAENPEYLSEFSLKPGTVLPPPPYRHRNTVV
T1 sequence (Q15303 other isoform, or with tags, fused parts or gaps mutant limits assumed): as the sequence (Q15303 26-1308 limits assumed) above, with T1281A, V1282A, V1283A counted along it

Molecule	Erk activation (Erk phosphorylation, Western blot) in Tjp1 shRNA MCF-7 cells, 15 min stimulation [1]	Erk activation (Erk phosphorylation, Western blot) in control shRNA MCF-7 cells, 15 min stimulation [1]	binding result [2]
human NRG-1 (Cell Signalling Technology, Cat. #5218) (from UniProt Q02297 177-241) (ligand)	2.5 ng/mL	50 to 100 ng/mL	
B1			no binding
